{
  "source": "patent US20150175678A1",
  "about": "(BETH ISRAEL DEACONESS MEDICAL CENTER, published 2015)",
  "binders": {"B1": {"name": "F425-A1g8 IgA1 antibody variant expressed from CHO-K1 cells (antibody)", "heavy": "QEQLVESGGGVVQPGRSLRLSCEASGFIFSAFVLHWVRQAPGKGLEWVAVVWYDGNSKYYADSVKGRFTISRDTSQNTLHLQMDSLRPEDTAVYYCAREWVADDDTFDGFDVWGQGTMVTVSSASLTSPKVFPLSLCSTQPDGNVVIACLVQGFFPQEPLSVTWSESGQGVTARNFPPSQDASGDLYTTSSQLTLPATQCLAGKSVTCHVKHYTNPSQDVTVPCPVPSTPPTPSPSTPPTPSPSCCHPRLSLHRPALEDLLLGSEANLTCTLTGLRDASGVTFTWTPSSGKSAVQGPPDRDLCGCYSVSSVLSGCAEPWNHGKTFTCTAAYPESKTPLTATLSKSGNTFRPEVHLLPPPSEELALNELVTLTCLARGFSPKDVLVRWLQGSQELPREKYLTWASRQEPSQGTTTFAVTSILRVAAEDWKKGDTFSCMVGHEALPLAFTQKTIDRLAGKPTHVNVSVVMAEVDGTCY", "light": "not shown"}},
  "key": {"[1]": {"molecular_target": "HIV-1 67970 (Clade B, X4) envelope glycoprotein gp120 (HIV-1, isolate 67970)", "experiment": "cell-based or functional assay"}, "[2]": {"molecular_target": "HIV-1 JR-FL (Clade B, R5) envelope glycoprotein gp120 (HIV-1, isolate JR-FL)", "experiment": "cell-based or functional assay"}},
  "data": [
    {"binder": "B1", "values": [
      {"measurement": "Neutralization of HIV-1, IC50 (TZM-bl cells, beta-galactosidase)", "setting": "[1]", "result": 23.3, "unit": "µg/mL"},
      {"measurement": "Neutralization of HIV-1, IC50 (TZM-bl cells, beta-galactosidase)", "setting": "[2]", "result": 1.73, "unit": "µg/mL"}
    ]}
  ]
}
